Measured values as given in article PMC314469, “Protein Interaction Networks by Proteome Peptide Scanning” (PLoS Biology, 2004).

T1: Abp1 SH3 (ABP1_YEAST), P15891
T1 chain: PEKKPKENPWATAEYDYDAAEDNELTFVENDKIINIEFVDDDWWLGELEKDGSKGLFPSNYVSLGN

B1: YDR273W 125-138 (peptide)
chain: SPEENTDFALPMKP
B2: YKL108W 250-262 (peptide)
chain: STSFSPSPLIRRP
B3: YNL014W 670-682 (peptide)
chain: SNMTFQYPGTTKP
B4: YDR451C 284-297 (peptide)
chain: SSIFEDHHITPSKP
B5: YAL043C 192-204 (peptide)
chain: STIPDNHPVLNKP
B6: YNL106C 1109-1121 (peptide)
chain: STKPEKPPVVKKP
B7: YER116C 142-154 (peptide)
chain: SPMLDAAPPTTKP
B8: YGL092W 308-320 (peptide)
chain: SPNEIFSPSYSKP
B9: YKL020C 555-567 (peptide)
chain: STMVTYLPPSSKP
B10: YBR010W 32-44 (peptide)
chain: STGGVKKPHRYKP
B11: YCR033W 957-970 (peptide)
chain: SVQQSQILIQPERP
B12: YPR181C 246-258 (peptide)
chain: SPDQWSVPAGHRP
B13: YBL054W 203-215 (peptide)
chain: STFSDHEPQHTKP
B14: YKL027W 380-393 (peptide)
chain: STRLTLTKWDPSKP
B15: YBR122C 34-47 (peptide)
chain: SYPGSTRITLPRRP
B16: YFR019W 125-137 (peptide)
chain: SSTIKRYPSRYKP
B17: YAL019W 19-32 (peptide)
chain: SSPTKVASSSPLKP
B18: YNL307C 267-279 (peptide)
chain: SNPAYDGPLFSKP
B19: YIL156W 492-504 (peptide)
chain: SSTKVPEPPSWKP
B20: YNL230C 233-245 (peptide)
chain: SSSPKKGPLSIKP
B21: YER131W 88-101 (peptide)
chain: SREDRKNRAPPQRP
B22: YMR167W 278-290 (peptide)
chain: SVYSNYLPKGNRP
B23: YDR419W 378-390 (peptide)
chain: SRGRYGLPLSSRP
B24: YGL201C 3-15 (peptide)
chain: SPFPADTPSSNRP
B25: YJR035W 262-274 (peptide)
chain: SQRSSDLPEWRRP
B26: YPL137C 250-262 (peptide)
chain: SPMRGVAPTASKP
B27: YPR008W 490-502 (peptide)
chain: SNYITDRPFTRKP
B28: YER040W 495-507 (peptide)
chain: SSSRSVVPILPKP
B29: YMR280C 1387-1400 (peptide)
chain: SSGPSASHRGPRRP
B30: YDL180W 227-240 (peptide)
chain: SNNVYSSEYHPIKP
B31: YOR367W 152-164 (peptide)
chain: STKKPRPPVKSKP
B32: YLR144C 4-16 (peptide)
chain: SRQAIPPPVPNRP
B33: YBL054W 173-185 (peptide)
chain: SSAIEDSPPDFKP
B34: YDL145C 11-24 (peptide)
chain: STRAKGIAFHPSRP
B35: YBL058W 387-400 (peptide)
chain: SRNFTLNYAFPIKP
B36: YOR160W 317-329 (peptide)
chain: SVVISKNPDFFKP
B37: YNL139C 1440-1453 (peptide)
chain: SSYAHKRSELPTRP
B38: YJL076W 1069-1081 (peptide)
chain: SSILHDLPRKVRP
B39: YGL114W 7-19 (peptide)
chain: SQEVQRVPWDNKP
B40: YML027W 280-293 (peptide)
chain: SSSSSPLENTPPRP
B41: YLR079W 24-37 (peptide)
chain: SSALMQGQKTPQKP
B42: YIL056W 426-439 (peptide)
chain: SNRATLLTTLPMKP
B43: YGL021W 216-229 (peptide)
chain: STSSENRLRTPLKP
B44: YHR099W 870-882 (peptide)
chain: SVLAPYLPFLMKP
B45: YGL027C 137-150 (peptide)
chain: SVRVQGEPLDPKRP
B46: YPR022C 958-970 (peptide)
chain: SYNINSDPVITRP
B47: YGL008C 14-26 (peptide)
chain: SSVSAHQPTQEKP
B48: YKR089C 884-896 (peptide)
chain: SQATKSSPFRSRP
B49: YPL160W 891-903 (peptide)
chain: SVQNAKFPRASKP
B50: YBR102C 22-35 (peptide)
chain: SPAKQKTPPSPAKP
B51: YER019W 144-156 (peptide)
chain: STFLYRFPINGRP
B52: YPL202C 310-323 (peptide)
chain: SSSSSILPSTPTRP
B53: YNL020C 51-64 (peptide)
chain: SVASLKRVIVPDKP
B54: YNL152W 392-404 (peptide)
chain: SRKNSMSPTRKRP
B55: YGR178C 412-425 (peptide)
chain: SSTLKSNSSLPPKP
B56: YPL110C 407-419 (peptide)
chain: SYILEELPIHLRP
B57: YFR022W 627-640 (peptide)
chain: SYPSAIQNVQPRKP
B58: YNL298W 398-411 (peptide)
chain: SPSPSPSPLNPYRP
B59: YER005W 601-613 (peptide)
chain: SQSANLAPSNLRP

Molecular target: T1, Abp1 SH3 (ABP1_YEAST), P15891
Assay: SPOT array

Binder | normalised SPOT signal, Boehringer light units (BLU); mean over the file's lines of this peptide
B1 | 98.8
B2 | 550
B3 | 144
B4 | 0
B5 | 117
B6 | 13300
B7 | 158
B8 | 66.1
B9 | 136
B10 | 130
B11 | 73
B12 | 65.3
B13 | 96.8
B14 | 209
B15 | 568
B16 | 238
B17 | 104
B18 | 95.6
B19 | 34.3
B20 | 347

Binder | normalised SPOT signal, Boehringer light units (BLU); mean over the file's lines of this peptide
B21 | 109
B22 | 216
B23 | 327
B24 | 114
B25 | 377
B26 | 2700
B27 | 409
B28 | 329
B29 | 390
B30 | 12.1
B31 | 67200
B32 | 2950
B33 | 85.8
B34 | 119
B35 | 80.1
B36 | 62.4
B37 | 201
B38 | 786
B39 | 86.2
B40 | 159

Binder | normalised SPOT signal, Boehringer light units (BLU); mean over the file's lines of this peptide
B41 | 335
B42 | 243
B43 | 76.6
B44 | 8.6
B45 | 80
B46 | 90.3
B47 | 161
B48 | 1250
B49 | 240
B50 | 54.6
B51 | 89.3
B52 | 70.9
B53 | 388
B54 | 209
B55 | 69
B56 | 140
B57 | 105
B58 | 21.8
B59 | 95.4
